Experimental data published in the Human Domainome abundance scans (Beltran et al. 2025).
± gives the uncertainty stated by the source.

B1: Gamma-crystallin D, residues 90 to 170; numbered along this chain, P07320 (parent)
chain: IRLYEREDYRGQMIEFTEDCSCLQDRFRFNEIHSLNVLEGSWVLYELSNYRGRQYLLMPGDYRRYQDWGATNARVGSLRRV

Variants of: B1
Experiment: abundance fitness (aPCA) (normalised: wild type 0, dead -1); higher = more abundant; growth selection in yeast, the domain comes from the species named
Conditions: Homo sapiens

Abundance fitness of substitutions, site by site:
T71: L 0.04 ± 0.096; N 0.054 ± 0.32; W 0.001 ± 0.1; A 0.029 ± 0.11; C 0.008 ± 0.12; I 0.043 ± 0.17; Y -0.201 ± 0.25; K -0.003 ± 0.16; F -0.044 ± 0.16; P -0.049 ± 0.13; V -0.103 ± 0.11; M -0.125 ± 0.15; H 0.05 ± 0.18; G -0.014 ± 0.074
G76: M 0.111 ± 0.16; R 0.024 ± 0.076; Y -0.221 ± 0.16; D -0.068 ± 0.099; N -0.125 ± 0.2; H 0.11 ± 0.16; W -0.441 ± 0.14; A 0.011 ± 0.074; T -0.109 ± 0.12; K -0.112 ± 0.14; E 0.008 ± 0.11; C -0.287 ± 0.13; S -0.027 ± 0.096
N72: R 0.026 ± 0.054; I 0.21 ± 0.32; V 0.065 ± 0.058; W 0.233 ± 0.067; P 0.03 ± 0.076; K -0.065 ± 0.12; Q 0.03 ± 0.11; C -0.078 ± 0.12; S 0.051 ± 0.083; H -0.083 ± 0.12; M 0.131 ± 0.11; L 0.149 ± 0.066; D -0.016 ± 0.17; G -0.001 ± 0.078; A -0.08 ± 0.1; Y 0.173 ± 0.14; F 0.118 ± 0.12
A73: G 0.004 ± 0.063; P -0.175 ± 0.13; Q 0.09 ± 0.089; E -0.012 ± 0.12; R 0.121 ± 0.059; H 0.151 ± 0.13; N 0.05 ± 0.23; Y 0.003 ± 0.13; C 0.005 ± 0.14; V 0.066 ± 0.076; M 0.156 ± 0.059; W 0.123 ± 0.064; D 0.104 ± 0.13; F -0.173 ± 0.17; T 0.126 ± 0.11; S -0.023 ± 0.091; L 0.067 ± 0.07
S77: E -0.868 ± 0.31; Q -1.05 ± 0.42; D -1.03 ± 0.31; K -0.654 ± 0.35; R -1.01 ± 0.17; P -1.04 ± 0.29; G -0.367 ± 0.072; T -0.921 ± 0.3; L -0.819 ± 0.14; A -0.168 ± 0.087; W -1.01 ± 0.29; V -1.13 ± 0.26; C -0.28 ± 0.17; F -0.879 ± 0.45
W68: M 0.15 ± 0.11; T 0.149 ± 0.089; V 0.087 ± 0.094; Q -0.355 ± 0.11; Y -0.163 ± 0.33; P -0.067 ± 0.1; N -0.117 ± 0.19; R 0.093 ± 0.054
A70: N 0.136 ± 0.46; I 0.024 ± 0.16; Y -0.033 ± 0.2; G -0.047 ± 0.061; E 0.165 ± 0.1; P 0.047 ± 0.086; C 0.074 ± 0.072; M 0.109 ± 0.14; S -0.025 ± 0.093; D 0.18 ± 0.13; Q -0.032 ± 0.1; F 0.048 ± 0.11; H 0.045 ± 0.15; W 0.032 ± 0.06; V 0.044 ± 0.081; L 0.045 ± 0.063; R 0.095 ± 0.049
R79: D -0.552 ± 0.32; A 0.096 ± 0.097; E 0.113 ± 0.16; F -0.214 ± 0.12; C -0.355 ± 0.39
G69: E 0.193 ± 0.075; V 0.105 ± 0.061; F -0.008 ± 0.17; C 0.084 ± 0.15; W 0.045 ± 0.078; T 0.016 ± 0.098; A 0.038 ± 0.079; I -0.057 ± 0.15; Q 0.082 ± 0.15; M 0.24 ± 0.13; D -0.105 ± 0.17; S -0.019 ± 0.073; R 0.141 ± 0.079; P -0.164 ± 0.081; Y 0.037 ± 0.26; L 0.101 ± 0.085; N -0.011 ± 0.22
V75: M -0.024 ± 0.12; P -0.011 ± 0.087; H -0.742 ± 0.43; Y -0.001 ± 0.23; N -0.205 ± 0.19; Q -0.145 ± 0.075; K -0.683 ± 0.25; T -0.206 ± 0.13; C -0.065 ± 0.093; W -0.131 ± 0.11; A -0.017 ± 0.097; E -1.04 ± 0.3; F -0.037 ± 0.18; R -0.863 ± 0.14; G -0.024 ± 0.073; D -0.988 ± 0.25; I -0.201 ± 0.24
L78: M 0.126 ± 0.11; K -1.12 ± 0.45; E -0.873 ± 0.34; G -0.565 ± 0.09; R -0.893 ± 0.11; W -0.011 ± 0.07; S -0.38 ± 0.091; P -0.708 ± 0.2; C 0.157 ± 0.13; Q -0.908 ± 0.5; I 0.061 ± 0.17; H -0.426 ± 0.18
R74: C 0.012 ± 0.16; W -0.029 ± 0.11; L -0.002 ± 0.071; E 0.132 ± 0.14; M -0.224 ± 0.068; N 0.098 ± 0.21; A -0.015 ± 0.085; F -0.023 ± 0.13; D 0.018 ± 0.21; Q -0.02 ± 0.098; P 0.005 ± 0.093; K -0.134 ± 0.15; G -0.011 ± 0.07; Y -0.092 ± 0.26; S -0.011 ± 0.078; V 0.028 ± 0.096
